The values that follow come from patent publication US20250034266A1 (ZAI LAB SHANGHAI, published 2025).

B1: Hu149-13 (antibody, human IgG1, V domains shown)
VH: EVQLVESGGGLVQPGGSLKLSCAASGFTFNTYAMNWVRQASGKGLEWVGRIRSKSNFYATAYAASVKGRFTISRDDSKNTAYLQMNSLKTEDTAVYYCTRGREYGRSYAMDYWGQGTLVTVSS
VL: DIVMTQSPLSLPVTPGEPASISCRSSKSLLHSNANTYLYWFLQKPGQSPQLLIYRMSNLASGVPDRFSGSGSGTDFTLKISRVEAEDVGVYYCMQHLEYPLTFGGGTKVELK
notes: human IgG1
B2: Hu149-14 (antibody, human IgG1, V domains shown)
VH: B1 VH with R106S, S107A
VL: B1 VL
notes: human IgG1
B3: Hu149-15 (antibody, human IgG1, V domains shown)
VH: B1 VH with S41P, E103D, R106S
VL: B1 VL
notes: human IgG1
B4: 348E2D11 (antibody, V domains shown)
VH: QVQLVETGGGLVRPGNSLKLSCVTSGFSFSNYRMHWLRQPPGKRLEWIAVITVKSDNYGANYAESVKGRFTISRDDSKSSVYLQMNRLREEDTATYYCSSLGRVAYWGQGTLVTVSA
VL: DIVMTQSQKFMFTSVGDRVSVTCKASQNVDTNVVWYQQKPGQSPKALIYSASSRYSGVPDRFTGSGSGTDFTLTISNVQSEDLAEYFCQQHNSFPLTFGAGTKLELI
notes: purified murine hybridoma antibody
B5: 262C2G7 (antibody, V domains shown)
VH: DVHLQESGPGLVKPSQSLSLTCSVTGYSITSGYYWNWIRQFPGNKLEWMGYISYDGSNNYNPSLKNRISITRDISKNQFFLKLNSVTTEDTATYYCARQIGLRRGAMDYWGQGTSVTVSS
VL: DIQMTQSSSYLSVSLGGRVTITCKASDHINNWLAWYQQKPGNAPRLLISGSTSLKAGVASRFSGSGSGKDYTLTITSLQTEDVATYYCQQYWGIPFTFGGGTKLEIK
notes: as for B4
B6: 191E12H8 (antibody, V domains shown)
VH: B5 VH with H3Q
VL: B5 VL with N31T
notes: as for B4
B7: 234G9C12 (antibody, V domains shown)
VH: B5 VH with H3Q, I52T, L64F, Y109H
VL: B5 VL with K55R
notes: as for B4
B8: 273H2G6 (antibody, V domains shown)
VH: B5 VH with H3Q, I100V
VL: B5 VL with T74S, G93S, F96Y
notes: as for B4

Substitutions are numbered along the chain they refer to.

In the first assay the target is T1, cynomolgus CCR8 (cynomolgus, UniProt G7NYJ2 1-355).
T1 construct: whole, on cells
T1 sequence (G7NYJ2 entry or part of it): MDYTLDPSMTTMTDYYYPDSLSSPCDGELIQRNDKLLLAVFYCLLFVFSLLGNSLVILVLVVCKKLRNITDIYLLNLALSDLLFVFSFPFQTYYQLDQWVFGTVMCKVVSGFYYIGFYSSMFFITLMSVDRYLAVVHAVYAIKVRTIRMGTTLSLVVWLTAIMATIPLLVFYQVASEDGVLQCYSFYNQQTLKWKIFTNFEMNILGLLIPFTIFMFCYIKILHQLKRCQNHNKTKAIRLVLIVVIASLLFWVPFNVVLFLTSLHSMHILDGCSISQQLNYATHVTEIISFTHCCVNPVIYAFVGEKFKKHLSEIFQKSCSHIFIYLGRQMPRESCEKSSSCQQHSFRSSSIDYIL
Description: FACS on HEK293-cynomolgus CCR8 cells.
The term EC50 denotes the midpoint of the concentration-response curve. High values mean a need for much substance, low ones an effect from little substance. For B1, the response was half-maximal at 193 pM (EC50) and the “Max MFI” value was determined as 4.37e+06 MFI.
For the molecule B2, a half-maximal effect (EC50) was put at 157 pM and the “Max MFI” value turned out to be 4.42e+06 MFI.
As for B3, a half-maximal response (EC50) required 282 pM and the “Max MFI” value was 3.93e+06 MFI.

The target in the next assay is T2, human CCR8 (human, UniProt P51685 1-355).
T2 construct: whole, on cells; also called hCCR8
T2 sequence (P51685 whole entry): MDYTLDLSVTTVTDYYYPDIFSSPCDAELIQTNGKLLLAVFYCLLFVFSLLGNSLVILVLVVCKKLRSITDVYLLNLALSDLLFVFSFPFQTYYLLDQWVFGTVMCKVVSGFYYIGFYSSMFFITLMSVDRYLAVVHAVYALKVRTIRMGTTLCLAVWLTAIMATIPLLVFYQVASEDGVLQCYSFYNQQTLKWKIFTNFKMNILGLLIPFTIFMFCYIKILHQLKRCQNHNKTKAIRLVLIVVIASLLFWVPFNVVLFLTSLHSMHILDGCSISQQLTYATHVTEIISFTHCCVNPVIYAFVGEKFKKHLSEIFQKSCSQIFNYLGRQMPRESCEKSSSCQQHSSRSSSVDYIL
Put plainly: FACS, competition with AF647-human CCL1 on HEK293-human CCR8 cells. The method, then: (§1) Antibodies were prepared with 3-fold serial dilution ranging from 200 nM to 0.01 nM in FACS buffer. Then, cells were washed by FACS buffer for three times after incubation. […] FlowJo software was used for analysis. Data was plotted as the logarithm of antibody concentration versus mean fluorescence signals. IC₅₀ values were determined in GraphPad Prism 8 (GraphPad Software) using a log(agonist) vs. response-Variable slope (4 parameters) curve fit.
(In flow cytometry, cells or beads pass a laser one at a time.)
As a reminder, the IC50 is the concentration needed to halve the response being measured. Read a low IC50 as higher potency. As for B4, the IC50 came to 368 pM and the “Max Inhibition (%)” value was 100%.
The corresponding values for B5 are 632 pM and 86.1%.
With B6, the 50% inhibitory concentration (IC50) is 934 pM and the “Max Inhibition (%)” value was 85.6%.
The corresponding values for B7 are 812 pM and 94%.
For B8, the IC50 is 782 pM and the “Max Inhibition (%)” value is 85.8%.

For a further assay, the target named is T2, human CCR8. Description: FACS on CHO-K1-human CCR8 cells.
As to B1, a half-maximal effect (EC50) was put at 100 pM and the “Max MFI” value worked out at 653000 MFI.
The corresponding values for B2 are 62.6 pM and 663000 MFI.
As to B3, the midpoint of the response, the EC50, lay at 128 pM and the “Max MFI” value came to 627000 MFI.

The target in another assay is T2, human CCR8. Put plainly: FACS, competition with CCL1 on CHO-K1-human CCR8 cells.
On to B1, for which the IC50 was 84.1 pM and the “Max Inhibition (%)” value turned out to be 102%.
For the molecule B2, the IC50 stood at 81.6 pM and the “Max Inhibition (%)” value was 100%.
Consider B3, for which the IC50 stood at 104 pM and the “Max Inhibition (%)” value turned out to be 99.3%.

In a further assay the target is T2, human CCR8. Description: FACS, competition with AF647-human CCL1 on CHO-K1-human CCR8 cells. Here is the method:
as §1
In the case of B4, the half-inhibitory concentration (IC50) was determined as 231 pM and the “Max Inhibition (%)” value came out at 95%.
As for B5, the IC50 amounted to 1570 pM and the “Max Inhibition (%)” value turned out to be 95.6%.
In the case of B6, the concentration for half-maximal inhibition (IC50) is 13300 pM and the “Max Inhibition (%)” value amounted to 89.7%.
The matching figures for B7: 1340 pM and 96.8%.
The matching figures for B8: 2480 pM and 91.3%.

Another assay deals with T2, human CCR8. Description: FACS on HuT78 cells (endogenous human CCR8). Here is the method: HuT78 cells expressing endogenous human CCR8 were used for determining binding affinities of selected affinity matured anti-CCR8 antibodies. Briefly, a total of […] cells for each well were seeded in 96-well plates and washed with FACS buffer (DPBS containing […]) for once. […] Cells were incubated with 50 μL of diluted antibodies at 4° C. for 1 hour. After primary antibody incubation, cells were washed for 3 times by FACS buffer. Then, cells were stained by Alexa Fbu647 labeled anti-human IgG secondary antibody (Jackson ImmunoResearch, #109606170) at 1:600 dilution in FACS buffer for 0.5 hour at 4° C. After 3 times washed, flow cytometry (Sartourius, iQue3) was performed to measure the binding affinities of antibodies. […]
Turning to B1, the “Max MFI” value came to 39100 MFI.
In the case of B2, it took 184 pM to reach a half-maximal effect (EC50) and the “Max MFI” value stood at 28600 MFI.
The matching figures for B3: 108 pM and 21300 MFI.
